From US20140072613A1 (published 2014)

Tests used:
Assay in all cases: cell-based or functional assay
[1] = target: T1, Haspin(h) (human, UniProt Q8TF76 471-798, limits assumed)
T1 sequence (looked up): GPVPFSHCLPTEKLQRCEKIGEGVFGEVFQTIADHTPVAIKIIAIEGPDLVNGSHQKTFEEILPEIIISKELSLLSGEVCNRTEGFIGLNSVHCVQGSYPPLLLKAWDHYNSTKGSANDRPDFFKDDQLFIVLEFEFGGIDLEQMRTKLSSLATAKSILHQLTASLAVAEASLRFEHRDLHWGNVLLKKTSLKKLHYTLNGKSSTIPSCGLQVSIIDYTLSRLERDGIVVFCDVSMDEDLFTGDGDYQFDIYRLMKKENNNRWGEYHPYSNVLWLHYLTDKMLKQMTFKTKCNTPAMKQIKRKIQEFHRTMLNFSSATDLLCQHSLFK

[2] = target: HIPK2(h) (human, UniProt Q9H2X6 165-564, limits assumed)
Sequence of HIPK2(h) (Q9H2X6 165-564 limits assumed): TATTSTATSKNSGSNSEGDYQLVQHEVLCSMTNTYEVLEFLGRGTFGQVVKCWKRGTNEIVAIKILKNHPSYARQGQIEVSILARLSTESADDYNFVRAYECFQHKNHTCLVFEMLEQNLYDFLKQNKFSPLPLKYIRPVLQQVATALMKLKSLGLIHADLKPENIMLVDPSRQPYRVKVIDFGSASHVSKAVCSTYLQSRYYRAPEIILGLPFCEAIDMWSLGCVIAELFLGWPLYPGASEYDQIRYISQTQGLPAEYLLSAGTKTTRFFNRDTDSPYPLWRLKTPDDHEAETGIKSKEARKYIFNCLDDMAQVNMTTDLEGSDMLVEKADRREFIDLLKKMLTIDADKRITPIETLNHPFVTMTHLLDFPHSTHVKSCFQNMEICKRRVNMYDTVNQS

[3] = target: T2, Itk(h) (human, UniProt Q08881 352-620, limits assumed)
T2 sequence (looked up): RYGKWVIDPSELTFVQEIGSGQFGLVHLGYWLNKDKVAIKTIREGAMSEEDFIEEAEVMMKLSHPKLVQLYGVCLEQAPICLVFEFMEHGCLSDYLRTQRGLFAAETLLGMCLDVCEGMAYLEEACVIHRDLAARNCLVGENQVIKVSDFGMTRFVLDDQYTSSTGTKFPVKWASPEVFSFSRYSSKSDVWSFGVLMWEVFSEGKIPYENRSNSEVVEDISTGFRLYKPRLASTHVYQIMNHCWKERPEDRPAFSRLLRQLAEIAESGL

[4] = target: Met(h) (human, UniProt P08581 956-1390, limits assumed)
[5] = target: Met(Y1248H)(h) (human, UniProt P08581-2 974-1408, limits assumed)
[6] = target: Mnk2(h) (human, UniProt Q9HBH9 1-465, limits assumed)
Sequence of Mnk2(h) (Q9HBH9 whole entry): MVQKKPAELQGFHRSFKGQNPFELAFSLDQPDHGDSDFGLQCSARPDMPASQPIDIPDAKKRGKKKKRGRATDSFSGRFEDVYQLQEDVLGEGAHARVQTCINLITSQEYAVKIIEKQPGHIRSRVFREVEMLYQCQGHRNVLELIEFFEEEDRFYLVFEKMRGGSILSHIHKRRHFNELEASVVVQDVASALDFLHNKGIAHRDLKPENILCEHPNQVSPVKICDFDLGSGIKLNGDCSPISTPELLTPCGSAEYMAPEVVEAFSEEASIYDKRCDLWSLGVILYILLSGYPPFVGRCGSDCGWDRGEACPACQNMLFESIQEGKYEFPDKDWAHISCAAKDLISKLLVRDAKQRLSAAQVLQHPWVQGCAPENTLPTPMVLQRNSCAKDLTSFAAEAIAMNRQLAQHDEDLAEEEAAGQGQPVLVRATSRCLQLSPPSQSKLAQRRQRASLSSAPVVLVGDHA

[7] = target: PDGFRα(h) (human, UniProt P16234 550-1089, limits assumed)
Sequence of PDGFRα(h) (P16234 550-1089 limits assumed): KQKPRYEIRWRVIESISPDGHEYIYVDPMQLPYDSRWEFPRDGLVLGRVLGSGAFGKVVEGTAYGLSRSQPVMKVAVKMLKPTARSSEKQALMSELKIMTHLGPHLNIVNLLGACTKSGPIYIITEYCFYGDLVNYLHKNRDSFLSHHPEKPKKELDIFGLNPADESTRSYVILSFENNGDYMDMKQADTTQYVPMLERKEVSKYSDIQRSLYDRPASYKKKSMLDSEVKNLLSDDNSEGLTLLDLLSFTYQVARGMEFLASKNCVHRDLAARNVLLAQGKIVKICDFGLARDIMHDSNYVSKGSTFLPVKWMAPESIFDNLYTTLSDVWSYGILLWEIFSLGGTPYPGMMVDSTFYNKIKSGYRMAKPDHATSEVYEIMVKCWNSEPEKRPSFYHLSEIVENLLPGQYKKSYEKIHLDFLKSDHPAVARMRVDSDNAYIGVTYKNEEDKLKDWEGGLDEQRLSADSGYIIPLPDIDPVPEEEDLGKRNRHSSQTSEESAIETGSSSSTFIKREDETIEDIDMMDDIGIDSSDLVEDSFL

[8] = target: PDGFRα(V561D)(h) (human, UniProt P16234 550-1089, limits assumed)
Sequence of PDGFRα(V561D)(h) (P16234 550-1089 V561D limits assumed): as the sequence (P16234 550-1089 limits assumed) above, with V12D counted along it

[9] = target: T3, PKCι(h) (human, UniProt P41743 1-596)
T3 sequence (looked up): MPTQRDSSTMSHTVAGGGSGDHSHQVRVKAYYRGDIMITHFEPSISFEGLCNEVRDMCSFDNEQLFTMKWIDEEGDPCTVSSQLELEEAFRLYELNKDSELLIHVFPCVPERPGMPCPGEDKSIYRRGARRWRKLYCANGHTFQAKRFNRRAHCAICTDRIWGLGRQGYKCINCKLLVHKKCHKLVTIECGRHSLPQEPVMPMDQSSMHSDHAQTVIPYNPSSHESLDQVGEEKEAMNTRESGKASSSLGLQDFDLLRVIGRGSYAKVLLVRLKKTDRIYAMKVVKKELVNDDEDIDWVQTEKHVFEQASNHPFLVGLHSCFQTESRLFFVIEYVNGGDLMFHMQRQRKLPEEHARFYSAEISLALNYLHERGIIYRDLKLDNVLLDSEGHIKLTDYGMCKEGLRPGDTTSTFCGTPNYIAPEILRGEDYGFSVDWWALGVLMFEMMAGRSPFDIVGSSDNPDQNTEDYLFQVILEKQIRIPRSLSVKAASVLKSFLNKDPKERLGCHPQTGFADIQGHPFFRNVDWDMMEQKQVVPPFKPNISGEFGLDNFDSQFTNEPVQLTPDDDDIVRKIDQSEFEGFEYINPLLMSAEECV

[10] = target: SAPK2a(T106M)(h) (human, UniProt Q16539 1-360)
Sequence of SAPK2a(T106M)(h) (Q16539 whole entry T106M): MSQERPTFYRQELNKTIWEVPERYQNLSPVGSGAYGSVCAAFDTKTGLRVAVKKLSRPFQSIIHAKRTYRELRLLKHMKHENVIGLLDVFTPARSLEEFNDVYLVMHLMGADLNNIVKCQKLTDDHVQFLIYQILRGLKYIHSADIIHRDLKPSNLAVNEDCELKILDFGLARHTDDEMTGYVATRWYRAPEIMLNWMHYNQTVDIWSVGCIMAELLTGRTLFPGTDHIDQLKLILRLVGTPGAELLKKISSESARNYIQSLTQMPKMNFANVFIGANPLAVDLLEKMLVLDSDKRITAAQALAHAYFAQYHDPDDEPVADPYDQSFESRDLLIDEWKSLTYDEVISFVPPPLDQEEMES

[11] = target: Tie2(h) (human, UniProt Q02763 771-1124, limits assumed)
Sequence of Tie2(h) (Q02763 771-1124 limits assumed): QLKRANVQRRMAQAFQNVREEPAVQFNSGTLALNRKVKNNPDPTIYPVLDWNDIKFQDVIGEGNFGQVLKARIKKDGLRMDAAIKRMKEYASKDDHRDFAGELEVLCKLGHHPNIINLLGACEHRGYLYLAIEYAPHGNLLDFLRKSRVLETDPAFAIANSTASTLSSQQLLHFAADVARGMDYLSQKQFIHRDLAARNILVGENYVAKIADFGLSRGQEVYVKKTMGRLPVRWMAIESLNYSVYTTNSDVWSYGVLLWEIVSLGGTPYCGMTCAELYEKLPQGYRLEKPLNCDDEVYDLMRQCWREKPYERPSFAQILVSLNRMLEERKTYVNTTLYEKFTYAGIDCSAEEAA

[12] = target: T4, ULK3(h) (human, UniProt Q6PHR2 1-472, limits assumed)
T4 sequence (looked up): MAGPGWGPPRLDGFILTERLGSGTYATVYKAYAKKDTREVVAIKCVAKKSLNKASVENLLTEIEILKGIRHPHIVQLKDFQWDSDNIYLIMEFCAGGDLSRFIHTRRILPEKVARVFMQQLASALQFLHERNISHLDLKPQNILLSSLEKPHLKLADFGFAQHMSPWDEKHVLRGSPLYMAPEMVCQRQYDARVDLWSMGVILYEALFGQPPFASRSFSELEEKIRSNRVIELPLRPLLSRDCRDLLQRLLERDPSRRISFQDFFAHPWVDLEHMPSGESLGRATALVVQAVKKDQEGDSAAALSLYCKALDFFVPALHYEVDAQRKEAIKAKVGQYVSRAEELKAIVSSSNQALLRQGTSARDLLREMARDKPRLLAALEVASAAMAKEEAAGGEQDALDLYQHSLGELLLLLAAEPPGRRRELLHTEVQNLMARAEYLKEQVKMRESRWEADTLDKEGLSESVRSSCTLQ

[13] = target: BTK(R28H)(h) (human, UniProt Q06187 1-659)
Sequence of BTK(R28H)(h) (Q06187 whole entry R28H): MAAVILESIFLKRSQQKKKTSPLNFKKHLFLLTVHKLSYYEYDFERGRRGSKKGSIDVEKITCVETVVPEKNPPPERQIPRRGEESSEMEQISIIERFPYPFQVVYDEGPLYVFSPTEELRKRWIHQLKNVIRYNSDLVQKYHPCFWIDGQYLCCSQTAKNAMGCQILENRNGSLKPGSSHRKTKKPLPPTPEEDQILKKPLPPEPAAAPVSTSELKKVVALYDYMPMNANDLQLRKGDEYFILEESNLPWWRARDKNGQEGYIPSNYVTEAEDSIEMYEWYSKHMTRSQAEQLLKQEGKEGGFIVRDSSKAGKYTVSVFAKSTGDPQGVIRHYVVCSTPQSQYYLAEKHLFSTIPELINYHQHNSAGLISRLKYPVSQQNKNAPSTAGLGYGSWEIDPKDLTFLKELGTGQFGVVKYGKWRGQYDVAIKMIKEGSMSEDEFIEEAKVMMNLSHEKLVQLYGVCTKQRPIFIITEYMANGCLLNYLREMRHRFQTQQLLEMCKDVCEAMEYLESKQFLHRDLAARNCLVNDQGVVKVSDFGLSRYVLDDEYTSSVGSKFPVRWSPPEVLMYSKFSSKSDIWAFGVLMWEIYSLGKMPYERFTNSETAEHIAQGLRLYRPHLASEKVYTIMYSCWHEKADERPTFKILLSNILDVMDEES

[14] = target: CDK9/cyclin T1(h) (human, UniProt P50750 1-372; O60563 1-726, limits assumed)
Sequence of CDK9/cyclin T1(h) (P50750 whole entry, chain 1 of 2): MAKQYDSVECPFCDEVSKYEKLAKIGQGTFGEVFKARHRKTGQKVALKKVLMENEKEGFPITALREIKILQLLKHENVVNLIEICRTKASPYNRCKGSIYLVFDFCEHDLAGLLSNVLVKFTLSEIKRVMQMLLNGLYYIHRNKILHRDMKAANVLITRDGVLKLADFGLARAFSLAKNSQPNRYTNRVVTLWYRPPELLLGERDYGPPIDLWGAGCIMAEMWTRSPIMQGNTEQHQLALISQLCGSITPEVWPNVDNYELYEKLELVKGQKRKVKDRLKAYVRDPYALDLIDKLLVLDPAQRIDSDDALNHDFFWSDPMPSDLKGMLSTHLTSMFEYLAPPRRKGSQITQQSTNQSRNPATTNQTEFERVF
Sequence of CDK9/cyclin T1(h) (O60563 whole entry, chain 2 of 2): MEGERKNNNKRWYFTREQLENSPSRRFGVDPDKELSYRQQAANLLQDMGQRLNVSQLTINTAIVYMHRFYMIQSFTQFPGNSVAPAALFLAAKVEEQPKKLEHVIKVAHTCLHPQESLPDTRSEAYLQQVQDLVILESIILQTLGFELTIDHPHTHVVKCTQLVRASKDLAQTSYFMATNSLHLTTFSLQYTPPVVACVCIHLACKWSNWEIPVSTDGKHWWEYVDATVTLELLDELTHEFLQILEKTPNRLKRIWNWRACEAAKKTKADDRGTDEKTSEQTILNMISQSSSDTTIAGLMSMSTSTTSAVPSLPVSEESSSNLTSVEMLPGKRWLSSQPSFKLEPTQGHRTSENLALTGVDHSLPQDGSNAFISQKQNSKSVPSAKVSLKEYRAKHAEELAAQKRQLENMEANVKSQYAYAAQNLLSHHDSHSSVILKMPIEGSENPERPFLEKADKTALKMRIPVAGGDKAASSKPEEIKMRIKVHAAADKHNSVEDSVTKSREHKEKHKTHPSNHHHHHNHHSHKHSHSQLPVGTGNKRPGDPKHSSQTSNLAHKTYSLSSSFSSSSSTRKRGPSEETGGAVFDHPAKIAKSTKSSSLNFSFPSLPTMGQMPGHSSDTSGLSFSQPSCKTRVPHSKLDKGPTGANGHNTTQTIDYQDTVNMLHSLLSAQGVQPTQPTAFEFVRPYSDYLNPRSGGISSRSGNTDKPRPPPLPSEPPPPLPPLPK

[15] = target: CLK3(h) (human, UniProt P49761 1-490, limits assumed)
Sequence of CLK3(h) (P49761 whole entry): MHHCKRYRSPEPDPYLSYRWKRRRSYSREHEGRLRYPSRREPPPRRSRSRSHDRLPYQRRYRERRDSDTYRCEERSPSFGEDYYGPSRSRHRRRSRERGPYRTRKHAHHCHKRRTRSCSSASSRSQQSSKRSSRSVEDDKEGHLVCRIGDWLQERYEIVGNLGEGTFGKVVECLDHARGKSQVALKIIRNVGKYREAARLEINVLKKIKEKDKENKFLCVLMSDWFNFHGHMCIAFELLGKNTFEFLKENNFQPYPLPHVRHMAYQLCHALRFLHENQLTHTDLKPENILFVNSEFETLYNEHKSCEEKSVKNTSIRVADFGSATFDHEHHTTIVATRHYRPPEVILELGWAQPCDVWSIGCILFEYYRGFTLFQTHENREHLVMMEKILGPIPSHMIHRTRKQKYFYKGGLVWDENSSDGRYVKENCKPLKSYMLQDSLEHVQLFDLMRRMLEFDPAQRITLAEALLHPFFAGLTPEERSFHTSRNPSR

FAKLAARLYRKALARQLGVAA [MMI-0300]
% activity, 100 µM [1]: 48%
% activity, 100 µM [2]: 73%
% activity, 100 µM [3]: 77%
% activity, 100 µM [4]: 65%
% activity, 100 µM [5]: 117%
% activity, 100 µM [6]: 89%
% activity, 100 µM [7]: 65%
% activity, 100 µM [8]: 82%
% activity, 100 µM [9]: 68%
% activity, 100 µM [10]: 97%
% activity, 100 µM [11]: 26%
% activity, 100 µM [12]: 167%
% activity, 100 µM [13]: 74%
% activity, 100 µM [14]: 91%
% activity, 100 µM [15]: 61%

KAFAKLAARLYRKALARQLGVAA [MMI-0400]
% activity, 100 µM [1]: 36%
% activity, 100 µM [2]: 90%
% activity, 100 µM [3]: 63%
% activity, 100 µM [4]: 62%
% activity, 100 µM [5]: 63%
% activity, 100 µM [6]: 86%
% activity, 100 µM [7]: 40%
% activity, 100 µM [8]: 100%
% activity, 100 µM [9]: 46%
% activity, 100 µM [10]: 99%
% activity, 100 µM [11]: 21%
% activity, 100 µM [12]: 147%
% activity, 100 µM [13]: 24%
% activity, 100 µM [14]: 235%
% activity, 100 µM [15]: 84%
